Target: T1, PRMT-5His6 (C. elegans, UniProt P46580 1-734)
T1 construct: C. elegans protein arginine methyltransferase PRMT-5, open reading frame C34E10.5, a protein of 734 amino acids; cDNA of prmt-5 cloned into pET21a; also called purified PRMT-5His6 protein; recombinant PRMT-5
Test: pull-down; GST-CEP-1 or GST immobilised on glutathione sepharose beads, incubated with purified PRMT-5His6 for more than 2 h; bound PRMT-5His6 detected by immunoblot with anti-PRMT-5 antibody
Conditions: both partners purified

T1 sequence (P46580 whole entry): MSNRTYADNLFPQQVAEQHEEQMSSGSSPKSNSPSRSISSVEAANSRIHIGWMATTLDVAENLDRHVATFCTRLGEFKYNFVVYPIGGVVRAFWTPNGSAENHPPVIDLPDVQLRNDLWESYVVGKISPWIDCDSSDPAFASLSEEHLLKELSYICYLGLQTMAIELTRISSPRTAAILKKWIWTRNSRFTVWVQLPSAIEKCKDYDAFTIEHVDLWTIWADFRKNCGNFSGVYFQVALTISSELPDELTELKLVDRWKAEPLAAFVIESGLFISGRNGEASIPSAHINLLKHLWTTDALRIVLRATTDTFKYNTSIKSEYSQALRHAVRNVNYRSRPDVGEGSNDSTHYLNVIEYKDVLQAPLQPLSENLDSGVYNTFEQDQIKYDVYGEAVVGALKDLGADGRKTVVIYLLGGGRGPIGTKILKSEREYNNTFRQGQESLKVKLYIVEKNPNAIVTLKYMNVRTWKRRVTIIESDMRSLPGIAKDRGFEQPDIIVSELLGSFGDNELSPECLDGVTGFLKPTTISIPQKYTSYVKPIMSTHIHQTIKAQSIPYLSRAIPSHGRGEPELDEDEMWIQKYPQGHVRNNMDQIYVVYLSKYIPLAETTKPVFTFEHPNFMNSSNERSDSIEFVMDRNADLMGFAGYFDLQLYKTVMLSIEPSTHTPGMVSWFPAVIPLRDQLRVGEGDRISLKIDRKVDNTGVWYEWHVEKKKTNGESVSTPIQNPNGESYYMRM

B1: GST-CEP-1 (natural protein, C. elegans, UniProt Q20646 1-644, looked up)
chain: MEPDDSQLSDILKDARIPDSQDIGVNLTQNLSFDTVQKMIDGVFTPIFSQGTEDSLEKDILKTPGISTIYNGILGNGEETKKRTPKISDAFEPDLNTSGDVFDSDKSEDGLMNDESYLSNTTLSQVVLDSQKYEYLRVRTEEEQQLVIEKRARERFIRKSMKIAEETALSYENDGSRELSETMTQKVTQMDFTETNVPFDGNDESSNLAVRVQSDMNLNEDCEKWMEIDVLKQKVAKSSDMAFAISSEHEKYLWTKMGCLVPIQVKWKLDKRHFNSNLSLRIRFVKYDKKENVEYAIRNPRSDVMKCRSHTEREQHFPFDSFFYIRNSEHEFSYSAEKGSTFTLIMYPGAVQANFDIIFMCQEKCLDLDDRRKTMCLAVFLDDENGNEILHAYIKQVRIVAYPRRDWKNFCEREDAKQKDFRFPELPAYKKASLESINIKQEVNLENMFNVTNTTAQMEPSTSYSSPSNSNNRKRFLNECDSPNNDYTMMHRTPPVTGYASRLHGCVPPIETEHENCQSPSMKRSRCTNYSFRTLTLSTAEYTKVVEFLAREAKVPRYTWVPTQVVSHILPTEGLERFLTAIKAGHDSVLFNANGIYTMGDMIREFEKHNDIFERIGIDSSKLSKYYEAFLSFYRIQEAMKLPK
notes: C. elegans p53 homolog CEP-1; called the full-length GST-CEP-1 fusion protein; pGEX vectors put GST at the N-terminus; also called GST-CEP-1 fusion protein; full-length GST-CEP-1
Q: Does B1 bind?
A: binds

Reference: paper PMC2691592, “Caenorhabditis elegans Protein Arginine Methyltransferase PRMT-5 Negatively Regulates DNA Damage-Induced Apoptosis” (PLoS Genetics, 2009)
